Results as given in patent publication US20220054588A1, “USE OF SAP FOR THE TREATMENT OF EUROTIOMYCETES FUNGI INFECTIONS” (HUMANITAS MIRASOLE S.P.A., priority 2018, published 2022).

B1: murine PTX3: Recombinant murine PTX3 purified from Chinese hamster ovary cells (protein)
chain: ETSDDYELMYVNLDNEIDNGLHPTEDPTPCDCRQEHSEWDKLFIMLENSQMREGMLLQATDDVLRGELQRLRAELGRLAGGMARPCAAGGPADARLVRALEPLLQESRDASLRLARLEDAEARRPEATVPGLGAVLEELRRTRADLSAVQSWVARHWLPAGCETAIFFPMRSKKIFGSVHPVRPMKLESFSTCIWVKATDVLNKTILFSYGTKWNPYEIQLYLSSQSLVLVVGGKENKLAADTVVSLGRWSHLCGTWSSEQGSMSLWANGELVATTVEMAKSHSVPEGGLLQIGQEKNGCCVGGGFDESLAFSGRITGFNIWDRVLSEEEIRASGGVESCHIRGNVVGWGVTEIQAHGGAQYVS
B2: SAP: Serum Amyloid P component, species not printed at the place; murine Sap per legend b89 for b91, unstated for b97 (protein, UniProt P12246 21-224, looked up)
Serum amyloid P-component: QTDLKRKVFVFPRESETDHVKLIPHLEKPLQNFTLCFRTYSDLSRSQSLFSYSVKGRDNELLIYKEKVGEYSLYIGQSKVTVRGMEEYLSPVHLCTTWESSSGIVEFWVNGKPWVKKSLQREYTVKAPPSIVLGQEQDNYGGGFQRSQSFVGEFSDLYMWDYVLTPQDILFVYRDSPVNPNILNWQALNYEINGYVVIRPRVWD

Experiments:
[1] = tested on: A. fumigatus conidia; assay: FACS binding of biotin-conjugated murine SAP to A. fumigatus conidia, with competition; design: species or system Aspergillus fumigatus; conditions: Sap 0.1-10 μg/ml; Ptx3 50 μg/ml; anti-Sap monoclonal antibody detection
Method: FIG. 1 depicts the interaction of SAP with A. fumigatus conidia in mice. a) induction of SAP circulating levels after i.t. injection of 5×10^7 A. fumigatus (AF) conidia; LPS, 0.8 mg/Kg. Mean±SD. c) FACS analysis of binding of biotin-conjugated (b-) murine SAP (Sap; 10 μg/ml) to viable dormant or germinating conidia of AF (1×10^8). Human SAP (50 μg/ml) and CRP (50 μg/ml) were also used. Mean±SD of one quadruplicate experiment of two performed.
FIG. 10 depicts the susceptibility to A. fumigatus associated with single or double deficiency for SAP and PTX3. a and b, survival of wt and Apcs^−/−, Ptx3^−/− and Apcs^−/−, Ptx3^−/− mice after i.t. injection of 1×10^8 (a) or 5×10^7 (b) conidia. a, wt, n=9 (a, b); n=9 (a, b); Ptx3^−/−, n=7 (a) or n=10 (b); Ptx3^−/−, n=5 (a) or n=12 (b). a, b, P<0.05, wt vs. Apcs^−/− P<0.01 wt vs. Apcs^−/−, Ptx3^−/−; P=0.06, Apcs^−/−, Ptx3^−/− vs. Ptx3^−/− (Mantel-Cox test). a) Curves of wt and Apcs^−/− refer to the same ones shown in FIG. 2a-c FACS analysis of Sap (range from 0.1 to 10 μg/ml) binding to viable AF conidia (1×10^8) in presence of Ptx3 (50 μg/ml). An anti-Sap monoclonal antibody (non-reactive to Ptx3) was used. Mean±SD of a triplicate. **, P<0.01;***, P<0.005;****, P<0.0001 (unpaired t-test).
Binding of SAP. Conidia of A. fumigatus and A. flavus (1×10^8 CFU) were cultured 4 and 16 h under static condition in Sabouraud medium to respectively allow conidia swelling and germination. Blastospores and yeast of Candida albicans were prepared as previously described (Santus et al., 2017). Yeast (8×10^6/ml) were incubated at 37° C. for hyphal induction. Formation of hyphae was evaluated under a microscope at different time points until its amount was assessed at 95%. […] After extensive washing, samples were incubated (30 min, r. t.) with Alexa Fluor® 647-conjugated streptavidin and binding was evaluated by FACS as frequency and MFI and visualized by confocal microscopy as described. […]

[2] = tested on: neutrophils in whole blood; assay: Whole blood phagocytosis of A. fumigatus conidia by mouse neutrophils (FACS), with CD11b expression; type: cell-based, mice; conditions: SAP pre-opsonised conidia; for phagocytosis by neutrophils: 1 and 20 min
Method: FIGS. 7a and 7b depict the effect of SAP on A. fumigatus phagocytosis by neutrophils. a), b), FACS analysis (out of 3 performed) of phagocytosis (a) and CD11b internalization (b) in neutrophils after challenge with fluorescein-labelled AF conidia (5×10^6/100 μl of blood) opsonized or not with Sap is shown. a) neutrophil phagocytosis in whole blood of wt and Apcs^−/− mice. b) CD11b expression in neutrophils of a. a) and b) Mean±SEM;*, P<0.05;**, P<0.01;***, P<0.005;****, P<0.0005 (unpaired t-test).
FIG. 7c depicts the effect of human SAP on phagocytic activity. FACS analysis of neutrophil phagocytosis in blood of wt and Apcs^−/− mice after exposure with fluorescein-labelled AF conidia (5×10^6/100 μl of blood) opsonized or not with SAP. Figure refers to 2 experiments performed.***, P<0.005;***, P<0.0005 (unpaired t-test).
Cells and in vitro phagocytic activity. Phagocytosis assay in whole blood of A. fumigatus conidia by mouse and human neutrophils was performed as described (Moalli et al., 2010). Briefly, conidia (1×10^9) were labelled (1 h, r.t.) with FITC (Sigma-Aldrich; 5 mg/ml in DMSO), and eventually opsonized (1 h, r.t) with murine SAP (100 μg/ml; […]) and PTX3 (50 μg/ml; 1.1 μM). An amount of 1×10^7 FITC-conidia were added to 200 μl of mouse whole blood (collected with heparin) and incubated for 1, 5, 10, 20 or 30 min at 37° C. in an orbital shaker. Samples were immediately placed on ice and ACK lysis solution was added to lyse erythrocytes. Murine neutrophils were analysed by BD FACS Canto™ II Flow Cytometer (BD Biosciences) as previously described, and frequency and/or mean fluorescence intensity (MFI) of FITC neutrophils and CD11b expression were reported.

[3] = tested on: U937 cells; assay: Phagocytosis of A. fumigatus conidia by U937 cells overexpressing DC-SIGN; type: cell-based, human; conditions: U937 stably transfected for DC-SIGN and control cells
From the text: FIG. 9 depicts how SAP effect on phagocytosis is independent from its interaction with DC-SIGN. a) detection of DC-SIGN expression in transfected U937 cells by FACS. Untransfected cells and an irrelevant IgG were used as control. Mean±SD of a quadruplicate experiment is shown. b) FACS analysis of fluorescein-labelled AF conidia (1×10^7) phagocytosis by U937 cells (1×10^5) overexpressing DC-SIGN.
U937 cell lines [control (ATCC® CRL-1593.2™) and transduced with human DC-SIGN (ATCC® CRL-3253™)] were cultured in RPMI-1640 medium containing 5% FCS, 2 mM L-glutamine, 0.1 mM non-essential amino acids (all from Lonza-BioWhittaker™) and 0.05 mM 2-mercaptoethanol (BIO-RAD). DC-SIGN expression was ascertained by FACS using a rabbit polyclonal Ab (#ab5715, 5 μg/ml; AbCam, UK) and an Alexa Fluor® 488-conjugated goat anti rabbit (2 μg/ml; ThermoFisher-Molecular Probes). Phagocytosis of FITC-labelled A. fumigatus conidia (1×10^7) by U937 cells (1×10^5) was performed as above described above.

Molecule	competition of murine SAP binding to conidia [1]	CD11b internalization in neutrophils ([2]; Apcs−/− neutrophils)	phagocytosis by neutrophils ([2]; Apcs−/− whole blood)	CD11b internalization in neutrophils ([2]; wt neutrophils)	phagocytosis by neutrophils ([2]; wt whole blood)	SAP-mediated enhancement of phagocytosis, DC-SIGN transfected versus control cells [3]
B1	competed					
B2		restored CD11b internalization	rescued the defect	prompted it	potentiated phagocytosis	similar
